Measurements from article PMC8205236, “Quantitative Profiling of WNT-3A Binding to All Human Frizzled Paralogues in HEK293 Cells by NanoBiT/BRET Assessments” (ACS Pharmacology & Translational Science, 2021).

T1: HiBiT-tagged human FZD4 (human, UniProt Q9ULV1 37-537)
T1 construct: the receptor's own signal peptide is probably replaced; also called HiBiT-FZD4; WT FZD4; source: HEK293A, transiently transfected, on live cells; not shown: HiBiT, N-terminal, kept
T1 sequence (looked up): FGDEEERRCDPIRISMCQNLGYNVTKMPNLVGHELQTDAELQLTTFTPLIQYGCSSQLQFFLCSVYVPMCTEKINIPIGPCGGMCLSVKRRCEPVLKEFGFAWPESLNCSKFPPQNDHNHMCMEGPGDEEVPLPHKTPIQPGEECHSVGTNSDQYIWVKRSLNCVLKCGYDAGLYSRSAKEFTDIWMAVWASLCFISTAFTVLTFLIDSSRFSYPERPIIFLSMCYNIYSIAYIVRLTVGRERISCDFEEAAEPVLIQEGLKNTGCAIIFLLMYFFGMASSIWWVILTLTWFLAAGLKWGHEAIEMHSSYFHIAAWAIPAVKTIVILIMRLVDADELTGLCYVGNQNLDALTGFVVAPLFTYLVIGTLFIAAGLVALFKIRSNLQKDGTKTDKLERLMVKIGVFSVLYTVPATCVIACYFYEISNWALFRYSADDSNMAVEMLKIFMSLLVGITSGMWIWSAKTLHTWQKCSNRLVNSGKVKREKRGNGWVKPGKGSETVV


Experiments:
[1] = target: T1, HiBiT-tagged human FZD4; test: FRET or BRET; NanoBiT/BRET competition binding on live HEK293A cells with HiBiT-FZD4: 30 min preincubation with purified untagged WNT at 37 °C, then eGFP-WNT-3A to 0.4 nM for 240 min, then LgBiT and furimazine; pKi by Cheng-Prusoff; conditions: one partner purified
[2] = target: T2, eGFP-tagged mouse WNT-3A (mouse, UniProt P27467 19-352); test: FRET or BRET; NanoBiT/BRET saturation binding on live HEK293A cells (setup 1): eGFP-WNT-3A conditioned medium 16.7 pM to 16.7 nM, 5% FBS, 10 mM HEPES, 240 min at 37 °C, then LgBiT and furimazine for 10 min; one-site specific model (normalised logarithmic fits for pKd); conditions: partners not purified
T2 construct: WNT-3A, mouse, eGFP-tagged, secreted into conditioned medium; Co-expressed with His-Afamin, which may accompany the WNT in the medium; Two batches (16.7 nM and 16.2 nM); also called eGFP-WNT-3A; eGFP-Wnt-3A; source: HEK293F suspension cells, cotransfected with pCS2+-eGFP-WNT-3A and pCMV-His-Afamin; conditioned medium, concentrated 5-fold and medium-exchanged (not purified)

0.4 nM eGFP-WNT-3A binding displaced (%) [1] [%] | pKi [1] | ΔBRET [1] | Kd [2] [nM] | Binder
78.3 | 6.93 | -0.004 | – | untagged human WNT-5B (ligand, UniProt Q9H1J7 18-359, looked up, WNT-5B, human, untagged recombinant protein; source: bought: RnD Systems/Biotechne, purified) QLLTDANSWWSLALNPVQRPEMFIIGAQPVCSQLPGLSPGQRKLCQLYQEHMAYIGEGAKTGIKECQHQFRQRRWNCSTADNASVFGRVMQIGSRETAFTHAVSAAGVVNAISRACREGELSTCGCSRTARPKDLPRDWLWGGCGDNVEYGYRFAKEFVDAREREKNFAKGSEEQGRVLMNLQNNEAGRRAVYKMADVACKCHGVSGSCSLKTCWLQLAEFRKVGDRLKEKYDSAAAMRVTRKGRLELVNSRFTQPTPEDLVYVDPSPDYCLRNESTGSLGTQGRLCNKTSEGMDGCELMCCGRGYNQFKSVQVERCHCKFHWCCFVRCKKCTEIVDQYICK
– | – | – | 142 | FZD4-CD86 chimeric protein (HiBiT-tagged) (receptor) FGDEEERRCDPIRISMCQNLGYNVTKMPNLVGHELQTDAELQLTTFTPLIQYGCSSQLQFFLCSVYVPMCTEKINIPIGPCGGMCLSVKRRCEPVLKEFGFAWPESLNCSKFPPQNDHNHMCMEGPGDEEVPLPHKTPIQPGEECHSVGTNSDQYIWVKRSLNCVLKCGYDAGLYS
40.8 | 7.26 | -0.002 | – | untagged human WNT-3A (ligand, UniProt P56704 19-352, looked up, WNT-3A, human, untagged recombinant protein; source: bought: RnD Systems/Biotechne, purified) SYPIWWSLAVGPQYSSLGSQPILCASIPGLVPKQLRFCRNYVEIMPSVAEGIKIGIQECQHQFRGRRWNCTTVHDSLAIFGPVLDKATRESAFVHAIASAGVAFAVTRSCAEGTAAICGCSSRHQGSPGKGWKWGGCSEDIEFGGMVSREFADARENRPDARSAMNRHNNEAGRQAIASHMHLKCKCHGLSGSCEVKTCWWSQPDFRAIGDFLKDKYDSASEMVVEKHRESRGWVETLRPRYTYFKVPTERDLVYYEASPNFCEPNPETGSFGTRDRTCNVSSHGIDGCDLLCCGRGHNARAERRREKCRCVFHWCCYVSCQECTRVYDVHTCK
– | – | – | 5.8 | FZD6-FZD4 chimeric protein (receptor) HSLFTCEPITVPRCMKMAYNMTFFPNLMGHYDQSIAAVEMEHFLPLANLECSPNIETFLCKAFVPTCIEQIHVVPPCRKLCEKVYSDCKKLIDTFGIRWPEELECDRLQYCDETVPVTFDPHTEFLGPQKKTEQVQRDIGFWCPRHLKTSGGQGYKFLGIDQCAPPCPNMYFKSDELEFAKSFMAVWASLCFISTAFTVLTFLIDSSRFSYPERPIIFLSMCYNIYSIAYIVRLTVGRERISCDFEEAAEPVLIQEGLKNTGCAIIFLLMYFFGMASSIWWVILTLTWFLAAGLKWGHEAIEMHSSYFHIAAWAIPAVKTIVILIMRLVDADELTGLCYVGNQNLDALTGFVVAPLFTYLVIGTLFIAAGLVALFKIRSNLQKDGTKTDKLERLMVKIGVFSVLYTVPATCVIACYFYEISNWALFRYSADDSNMAVEMLKIFMSLLVGITSGMWIWSAKTLHTWQKCSNRLVNSGKVKREKRGNGWVKPGKGSETVV
– | – | – | 2.9 | FZD4-FZD8 chimeric protein (receptor) FGDEEERRCDPIRISMCQNLGYNVTKMPNLVGHELQTDAELQLTTFTPLIQYGCSSQLQFFLCSVYVPMCTEKINIPIGPCGGMCLSVKRRCEPVLKEFGFAWPESLNCSKFPPQNDHNHMCMEGPGDEEVPLPHKTPIQPGEECHSVGTNSDQYIWVKRSLNCVLKCGYDAGLYSFTVFWIGLWSVLCFVSTFATVSTFLIDMERFKYPERPIIFLSACYLFVSVGYLVRLVAGHEKVACSGGAPGAGGAGGAGGAAAGAGAAGAGAGGPGGRGEYEELGAVEQHVRYETTGPALCTVVFLLVYFFGMASSIWWVILSLTWFLAAGMKWGNEAIAGYSQYFHLAAWLVPSVKSIAVLALSSVDGDPVAGICYVGNQSLDNLRGFVLAPLVIYLFIGTMFLLAGFVSLFRIRSVIKQQDGPTKTHKLEKLMIRLGLFTVLYTVPAAVVVACLFYEQHNRPRWEATHNCPCLRDLQPDQARRPDYAVFMLKYFMCLVVGITSGVWVWSGKTLESWRSLCTRCCWASKGAAVGGGAGATAAGGGGGPGGGGGGGPGGGGGPGGGGGSLYSDVSTGLTWRSGTASSVSYPKQMPLSQV
– | – | – | 22.9 | FZD8-CD86 chimeric protein (HiBiT-tagged) (receptor) ASAKELACQEITVPLCKGIGYNYTYMPNQFNHDTQDEAGLEVHQFWPLVEIQCSPDLKFFLCSMYTPICLEDYKKPLPPCRSVCERAKAGCAPLMRQYGFAWPDRMRCDRLPEQGNPDTLCMDYNRTDLTTAAPSPPRRLPPPPPGEQPPSGSGHGRPPGARPPHRGGGRGGGGGDAAAPPARGGGGGGKARPPGGGAAPCEPGCQCRAPMVSVSSERHPLYNRVKTGQIANCALPCHNPFFSQDERA
– | – | – | 3.5 | FZD4-FZD6 chimeric protein (receptor) FGDEEERRCDPIRISMCQNLGYNVTKMPNLVGHELQTDAELQLTTFTPLIQYGCSSQLQFFLCSVYVPMCTEKINIPIGPCGGMCLSVKRRCEPVLKEFGFAWPESLNCSKFPPQNDHNHMCMEGPGDEEVPLPHKTPIQPGEECHSVGTNSDQYIWVKRSLNCVLKCGYDAGLYSIGTVSIFCLCATLFTFLTFLIDVRRFRYPERPIIYYSVCYSIVSLMYFIGFLLGDSTACNKADEKLELGDTVVLGSQNKACTVLFMLLYFFTMAGTVWWVILTITWFLAAGRKWSCEAIEQKAVWFHAVAWGTPGFLTVMLLAMNKVEGDNISGVCFVGLYDLDASRYFVLLPLCLCVFVGLSLLLAGIISLNHVRQVIQHDGRNQEKLKKFMIRIGVFSGLYLVPLVTLLGCYVYEQVNRITWEITWVSDHCRQYHIPCPYQAKAKARPELALFMIKYLMTLIVGISAVFWVGSKKTCTEWAGFFKRNRKRDPISESRRVLQESCEFFLKHNSKVKHKKKHYKPSSHKLKVISKSMGTSTGATANHGTSAVAITSHDYLGQETLTEIQTSPETSMREVKADGASTPRLREQDCGEPASPAASISRLSGEQVDGKGQAGSVSESARSEGRISPKSDITDTGLAQSNNLQVPSSSEPSSLKGSTSLLVHPVSGVRKEQGGGCHSDT
58.4 | 8.9 | -0.001 | – | untagged human WNT-11 (ligand, UniProt O96014 25-354, looked up, WNT-11, human, untagged recombinant protein; source: bought: RnD Systems/Biotechne, purified) IKWLALSKTPSALALNQTQHCKQLEGLVSAQVQLCRSNLELMHTVVHAAREVMKACRRAFADMRWNCSSIELAPNYLLDLERGTRESAFVYALSAAAISHAIARACTSGDLPGCSCGPVPGEPPGPGNRWGGCADNLSYGLLMGAKFSDAPMKVKKTGSQANKLMRLHNSEVGRQALRASLEMKCKCHGVSGSCSIRTCWKGLQELQDVAADLKTRYLSATKVVHRPMGTRKHLVPKDLDIRPVKDSELVYLQSSPDFCMKNEKVGSHGTQDRQCNKTSNGSDSCDLMCCGRGYNPYTDRVVERCHCKYHWCCYVTCRRCERTVERYVCK
78.4 | 7.08 | -0.004 | – | untagged human/mouse WNT-5A (ligand, UniProt P41221 62-380, looked up, WNT-5A, printed as human/mouse, untagged recombinant protein; human WNT-5A is P41221; source: bought: RnD Systems/Biotechne, purified) IIGAQPLCSQLAGLSQGQKKLCHLYQDHMQYIGEGAKTGIKECQYQFRHRRWNCSTVDNTSVFGRVMQIGSRETAFTYAVSAAGVVNAMSRACREGELSTCGCSRAARPKDLPRDWLWGGCGDNIDYGYRFAKEFVDARERERIHAKGSYESARILMNLHNNEAGRRTVYNLADVACKCHGVSGSCSLKTCWLQLADFRKVGDALKEKYDSAAAMRLNSRGKLVQVNSRFNSPTTQDLVYIDPSPDYCVRNESTGSLGTQGRLCNKTSEGMDGCELMCCGRGYDQFKTVQTERCHCKFHWCCYVKCKKCTEIVDQFVCK
34.5 | 7.87 | -0.001 | – | untagged human WNT-10B (ligand, WNT-10B, human, untagged recombinant protein; source: bought: RnD Systems/Biotechne, purified) not shown
